Data from patent US20120208770A1.

Target: vimentin of SCCVII cells (cell-surface protein of murine squamous cell carcinoma cells and SCCVII tumors in C3H mice) (mouse (murine SCCVII cells)) (UniProt P20152)
Assay: cell-based or functional assay

Sequence of UniProt P20152 (P20152 2-466): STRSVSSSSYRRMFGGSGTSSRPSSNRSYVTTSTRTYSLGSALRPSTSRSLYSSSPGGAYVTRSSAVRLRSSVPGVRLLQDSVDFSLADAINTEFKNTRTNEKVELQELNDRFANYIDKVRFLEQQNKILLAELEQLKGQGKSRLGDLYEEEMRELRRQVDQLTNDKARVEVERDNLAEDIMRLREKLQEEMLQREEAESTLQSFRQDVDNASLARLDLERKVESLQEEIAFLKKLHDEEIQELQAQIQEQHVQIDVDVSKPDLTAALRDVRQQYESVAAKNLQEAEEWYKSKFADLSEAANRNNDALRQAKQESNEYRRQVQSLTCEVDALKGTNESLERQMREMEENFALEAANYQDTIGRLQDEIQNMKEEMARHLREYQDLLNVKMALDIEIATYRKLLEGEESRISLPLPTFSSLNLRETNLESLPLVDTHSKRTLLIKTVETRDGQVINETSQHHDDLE

- accumulation of peptide-biotin in SCCVII tumor (positive per field, DAB staining), co-administered with anti-vimentin (positive per field): 1.2
- accumulation of peptide-biotin in SCCVII tumor (positive per field, DAB staining), without anti-vimentin (positive per field): 19.6
B1: CHP-biotin (NH2-…-biotin) (peptide)
peptide: H-VNTANSTGG-biotin
